A short description of this data set: amyloid nucleation score (Sup35N fusion, yeast selection) (log enrichment); library NNK3; higher = more nucleation; inactive = no reads after selection. An outline of the steps: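 Output and input plasmid inserts were sequenced by Illumina after psi-negative yeast carrying Sup35N fused to peptides of 20 random codons had been induced 24 hours with 100 μM copper sulfate and grown 7 days at 30°C on medium lacking adenine and uracil. The nucleation score is the DiMSum log enrichment of output over input reads, centred on the mode score of non-aggregating sequences. Sequences with under 100 input reads were excluded.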

± gives the uncertainty stated by the source.

Turning to GPSSMINNVDLSCFSF, the amyloid nucleation score result was “inactive”.
Next, GRLSTAICFCGTMPSRWGFS: “inactive”; TRDQHIIYYFVEPFKIITGM: 1.5 ± 0.099; IRSDG: “inactive”.
To RYVRCFLYTYKNFFD belongs “inactive”; to DYGSFMYSLTSCMVNYWYMA, “inactive”.
Substance FICVCSNWGFIQNMITAPDW registered an amyloid nucleation score of 2.77 ± 0.074.
In the case of YSRDIYVLEHV, the amyloid nucleation score entry is “inactive”.
As for EDHCSLFKLSAFTAYTGLAL, the amyloid nucleation score result is “inactive”.
To DTSTSMFRRVMEATVSTSLL belongs “inactive”.
To LSGFSMIFREDNSVVFV belongs “inactive”; to RVVLHITGLLPSSKKGVRGE, 0.433 ± 0.25; to SNWKGEISIHEGMLGCT, “inactive”.
Turning to KSYLVFDPWGPAKSLFYTDM, the amyloid nucleation score result is “inactive”.
To HKQCWYILVNVRLMSRSRRV belongs 0.818 ± 0.13; to HVTRLVFMNSRYVAKFVGRA, “inactive”.
Next, VLKSIGV: “inactive”; FLFSW: -0.483 ± 1.9.
Consider YLMFGTTNMAVLIRFEHH, for which the amyloid nucleation score entry was “inactive”.
To VCHGRSNHA belongs “inactive”; to TSYDFTMARYCSNDYVFIWH, 2.44 ± 0.061.
Substance YLSINHRTTSFYWYDFAGFP had an amyloid nucleation score of 0.537 ± 0.17.
Take RGATC: the amyloid nucleation score result is “inactive”.
To TWNMFDGSVRHFSIWFSARS belongs “inactive”; to NQEVSTGNILGLLAVTSCRD, “inactive”; to LFDHYWLGSWIVENSYPSGE, “inactive”.
To VCGIVIRGKVPKDKQYNMGE belongs “inactive”.
Next, GYYFWQWLRIIL: “inactive”; FRSTGRKQELLLHSRKKQLP: “inactive”; LCISKKVMNFSNASHGGQQC: “inactive”.
As for VYPSTSTLNYVMLQLTPVNS, the amyloid nucleation score entry is “inactive”.
Next, IILFKCWCKWEASGSATIVD: “inactive”; QGGGNIDSSVVTDSSDVVYS: “inactive”; DRCWMCLEAALQVAACVGSG: “inactive”.
Next, KFSYNVQLRVAWYVSGGSGT: “inactive”; DSIRLLLALPH: “inactive”.
To SHVLWCNMVNEFVHTLSRCG belongs 1.34 ± 0.082.
With FCLRLTYVRS, the amyloid nucleation score worked out at 0.757 ± 0.22.
To WGVNYMLWDCIYEATLSLIP belongs “inactive”; to CPSWCYFNRGDV, 1.39 ± 0.091; to IVGDRSLRSDEFSCC, “inactive”.
Next, DKRFELNRALLTVPWDQNRA: “inactive”.
Next, FLVCHDYAYETVG: “inactive”; KDSCCVGSRNAHFECYFEVA: “inactive”.
Turning to TIPLSFFDHI, the amyloid nucleation score result was “inactive”.
Next, ISRGALYLGMTATMRVQSGF: “inactive”; DMSPRMTLSIKSA: “inactive”; QRSTKPW: -0.586 ± 1.9.
To SFSRCLNSLEVRNKNSWWVG belongs -0.181 ± 0.75; to MLSLSLYKLFLRWKRTSSHD, 0.904 ± 0.16; to VKISPNAWALQLR, “inactive”.
Next, YFSSLNSNFWGVVRRRLLYN: “inactive”.
Turning to RMCGSCYLCYCRERRGYTAF, the amyloid nucleation score entry was “inactive”.
The substance FDLPCSYRCSMTYCYGVNGI returned an amyloid nucleation score of 1.02 ± 0.18.
With FLRLSMKLHNLWYLLGSLWS, the amyloid nucleation score entry was “inactive”.
To IKWVCTEVRSGCLSVDCVLV belongs “inactive”; to NVKTGNKPRDTQSRYVLPES, “inactive”.
Next, FWSPGYTIVTVTLNGLVPW: “inactive”; FLGSYSLTDRIRWVTFPLFQ: “inactive”; FDSFLWLTMNWIELIGNILV: “inactive”.
Next, AYRAITGSCVMSEVRGAWRL: “inactive”; QVFLSKVCMLFDVVARVVKR: “inactive”.
Take MFVVMWVDYLAEHMFYGRWW: the amyloid nucleation score entry is “inactive”.
To VVHYSLVVPSDGW belongs “inactive”.
For RRRVSKANPGDVMIWSVIAK, the amyloid nucleation score entry is “inactive”.
LMLMVCVN had an amyloid nucleation score of -0.601 ± 0.74.
Next, FLRRGCLFRQT: “inactive”.
Regarding LAGSSVVKLYGPVLRFFSSL, the amyloid nucleation score result was “inactive”.
Next, MTSFIFDVFCSCSCLYQRPL: “inactive”; LVYREGYIWVMFLIYSFWTV: “inactive”; CIMRMTFTMITYCNSLSLGS: “inactive”.
Next, SWVTVYTVMRVWVTFGNRRR: “inactive”; WNTGNMLPSVFTQMFA: “inactive”; KSTRF: “inactive”.
For TCRICTFGVWDFCRTDERRH, the amyloid nucleation score is 2.24 ± 0.069.
To FSGRMVSRIDIIYRRKSVMS belongs 1.28 ± 0.076.
To QVLLCNAPFRQLYVACFYCF belongs 0.422 ± 0.38; to KFMCSNAF, “inactive”.
To YTLRCDFLRNTA belongs “inactive”; to VYETELTFSARPRFCWCC, 0.094 ± 0.59; to GSVYETNDTELLRVTLR, “inactive”.
With RSYLN, the amyloid nucleation score entry is “inactive”.
Regarding VNNKHVVWCSVHGGSSR, the amyloid nucleation score entry was “inactive”.
Take TSWCNSKPCEILYVGSMAKE: the amyloid nucleation score result is “inactive”.
The substance NFSETSAKYHVTSRGFSSSR yielded an amyloid nucleation score of 0.456 ± 0.21.
To CWVRIVAICMGFW belongs “inactive”; to DFLYRGMNGSGFPLCIYQRC, “inactive”; to YLCTGQAGCAYMPRS, “inactive”.
For CLSLFTSGIV, the amyloid nucleation score result is “inactive”.
Next, VLCLLGSSVSS: “inactive”.
To EVYEMNSIRMRSSELSME belongs “inactive”; to TKRKCYPRLVRPGRLKGPSG, “inactive”; to VYGYELRCDLKGMLLS, “inactive”.
Take WMVNVTGWISHGRFGYNFLI: the amyloid nucleation score entry was “inactive”.
On to IDNMAVIYWTVNFVCRVW, for which the amyloid nucleation score was 1.26 ± 0.085.
Next, RIPLWCFS: “inactive”; FTKLYELSDMHISYTRS: “inactive”; GNDVGSMFESRN: “inactive”.
To PLCNCVNRENSDGMMWGYRE belongs “inactive”; to ISKAVSWCASCRSTQV, “inactive”; to CIRPVLSHSYEIKNTGLGRT, “inactive”.
To HFPAGFFSNWFCSIYYKVY belongs “inactive”.
Consider KFLITETGSEL, for which the amyloid nucleation score result was “inactive”.
Next, SMQRNSQFLLAQYTDPGGN: “inactive”; SFIRASKVCFDSHGCWFGLG: “inactive”.
To ICEQKEFPYVEQWLD belongs “inactive”; to TISDFISEEIRDLQGPVVCI, “inactive”.
Next, LFEDKCGNPWRNY: -0.126 ± 0.88.
For the substance MKFPEFQASCL, the amyloid nucleation score result is “inactive”.
To LRWYPDSCYVSV belongs “inactive”; to TLWLRVLSFWTVCFLVHFTM, “inactive”; to CVTGVSLPGNRISG, “inactive”.
On to VCLDHHGVGFYVRSSSCSS, for which the amyloid nucleation score entry is “inactive”.
Take VRQKALRNPQL: the amyloid nucleation score result was “inactive”.
In the case of VVEFRNFLGIM, the amyloid nucleation score entry is “inactive”.
Next, RTPVKGDRKSWTDRPISTAY: “inactive”.
Turning to DGMTKFRWSCVRWVCG, the amyloid nucleation score entry was “inactive”.
Next, IGSAISGNYYTINNCDFDTS: “inactive”.
To GFRMGLTHCHSALKEFRFCH belongs “inactive”; to EICGCCWKPVMWTGRCSCVY, “inactive”; to LFCVPWVVISPHHSIHRIWV, “inactive”.
Next, RDRWI: “inactive”; ALLFHLG: “inactive”; HSCITFSLPCTFRQRFCLLS: “inactive”.
For IRCMRGTTRHVSGLKRVERN, the amyloid nucleation score result is “inactive”.
Next, LVVGVFKGSRSYVFK: “inactive”; LVEHVEVCVIYCSCDCFSSV: 1.86 ± 0.059.
Next, YTIVLLYERFQLAPTTMWMC: “inactive”; ILAVAPVVPGVVLGRNCRAR: “inactive”.
Next, LMETSSRYTFYMKGLHRTMS: 0.428 ± 0.27.
Regarding VLYVIRNYSGDG, the amyloid nucleation score came to 1.62 ± 0.096.
